Test results from patent US7745575B1 (Cellpep Pharma Inc., priority 2004, dated 2010).
Bridge positions count the residues as written; N and C are the ends. Ends that are not written are not given here. Peptide text beside a SMILES is read from it.

T1: hKv3.2 (Homo sapiens, UniProt Q96PR1)
T1 sequence (Q96PR1 1-638): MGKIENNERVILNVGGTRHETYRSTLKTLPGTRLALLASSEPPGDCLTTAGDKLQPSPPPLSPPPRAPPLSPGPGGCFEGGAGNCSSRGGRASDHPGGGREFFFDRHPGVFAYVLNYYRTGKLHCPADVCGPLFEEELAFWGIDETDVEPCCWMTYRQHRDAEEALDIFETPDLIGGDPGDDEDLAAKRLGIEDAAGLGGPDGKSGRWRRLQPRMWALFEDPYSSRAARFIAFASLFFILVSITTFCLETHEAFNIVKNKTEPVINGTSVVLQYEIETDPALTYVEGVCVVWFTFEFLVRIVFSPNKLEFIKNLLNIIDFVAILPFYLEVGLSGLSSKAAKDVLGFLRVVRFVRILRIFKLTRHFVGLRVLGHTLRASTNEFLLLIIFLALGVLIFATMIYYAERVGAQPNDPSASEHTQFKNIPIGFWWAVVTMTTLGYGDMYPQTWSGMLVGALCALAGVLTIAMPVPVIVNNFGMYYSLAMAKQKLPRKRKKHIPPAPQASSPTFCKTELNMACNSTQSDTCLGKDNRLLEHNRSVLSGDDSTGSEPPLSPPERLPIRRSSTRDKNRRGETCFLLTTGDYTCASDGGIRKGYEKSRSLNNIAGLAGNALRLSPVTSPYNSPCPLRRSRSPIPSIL

T2: hKv3.2 (human (only by the printed prefix h), UniProt Q96PR1)
T2 sequence: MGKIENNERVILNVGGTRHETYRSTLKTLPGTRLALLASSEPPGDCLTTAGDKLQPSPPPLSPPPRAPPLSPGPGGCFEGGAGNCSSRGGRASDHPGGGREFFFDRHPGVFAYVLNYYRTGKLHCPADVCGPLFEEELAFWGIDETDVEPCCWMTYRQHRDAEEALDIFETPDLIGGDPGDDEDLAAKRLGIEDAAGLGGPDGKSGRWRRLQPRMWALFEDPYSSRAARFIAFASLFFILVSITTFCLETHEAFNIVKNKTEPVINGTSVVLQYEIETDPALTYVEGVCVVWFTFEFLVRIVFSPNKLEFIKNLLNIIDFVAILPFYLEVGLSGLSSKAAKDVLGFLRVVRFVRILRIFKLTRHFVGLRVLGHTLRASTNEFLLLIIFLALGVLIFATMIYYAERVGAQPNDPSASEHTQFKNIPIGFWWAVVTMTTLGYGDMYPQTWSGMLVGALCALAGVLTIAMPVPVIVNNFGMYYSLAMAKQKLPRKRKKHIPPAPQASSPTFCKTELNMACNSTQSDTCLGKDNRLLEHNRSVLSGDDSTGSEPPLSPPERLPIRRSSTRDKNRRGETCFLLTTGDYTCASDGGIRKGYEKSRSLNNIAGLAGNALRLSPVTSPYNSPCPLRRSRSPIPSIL


Key:
hIK1 (KCa3.1) = hIK1 (KCa3.1) (Homo sapiens, UniProt O15554); assay: patch-clamp whole-cell recording, Ca2+-activated K+ current block; assay type: cell-based
Chain of hIK1 (KCa3.1) (O15554 whole entry, the tested form may be a part): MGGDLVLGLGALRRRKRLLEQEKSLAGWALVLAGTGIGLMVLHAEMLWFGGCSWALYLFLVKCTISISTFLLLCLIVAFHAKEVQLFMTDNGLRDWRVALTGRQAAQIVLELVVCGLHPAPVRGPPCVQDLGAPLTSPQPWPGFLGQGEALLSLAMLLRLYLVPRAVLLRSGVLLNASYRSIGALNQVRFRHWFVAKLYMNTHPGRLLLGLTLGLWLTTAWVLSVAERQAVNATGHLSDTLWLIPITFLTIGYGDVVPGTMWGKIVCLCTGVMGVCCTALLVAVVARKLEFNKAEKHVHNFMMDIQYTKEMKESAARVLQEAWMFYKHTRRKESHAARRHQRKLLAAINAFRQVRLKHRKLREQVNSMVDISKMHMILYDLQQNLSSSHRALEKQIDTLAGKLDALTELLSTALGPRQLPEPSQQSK
Experimental: (§1) Electrophysiological experiments were carried out at 22-24° C. using the patch-clamp whole-cell recording mode. Cells were bathed with mammalian Ringer's solution (in mM): 160 NaCl, 4.5 KCl, 2 CaCl2, 1 MgCl2, and 10 HEPES (pH 7.4 with NaOH), with an osmolarity of 290-320 mOsm. […] A syringe-driven perfusion device was used to exchange the external recording bath solution. Two internal pipette solutions were used, one for measuring voltage-gated K^+ currents that contained (in mM): 155 KF, 2 MgCl2, 10 HEPES, and 10 EGTA (pH 7.2 with KOH), with an osmolarity of 290-320 mOsm and another for measuring Ca^2+-activated K^+ currents that contained (in mM): 135 K-aspartate, 8.7 CaCl2, 2 MgCl2, 10 EGTA, 10 HEPES (pH 7.2 with KOH), with an osmolarity of 290-320 mOsm. A free [Ca^2+]i of 1 μM was calculated. All currents through voltage-gated K^+ channels were elicited by 200 ms depolarising voltage steps from −80 to +40 mV. Potassium currents through KCa1.1, KCa2.1 and KCa3.1 were elicited by 1 μM internal [Ca^2+]i and 400 ms voltage ramps from −120 to 0 mV (for KCa3.1 channel and KCa1.1 channel) and from −120 to +40 mV (for KCa2.1 channel). Electrodes were pulled from glass capillaries (Science Products, Germany), and fire-polished to resistances of 2.5-5 MΩ. Membrane currents were measured with an EPC-9 or EPC-10 patch-clamp amplifier (HEKA Elektronik, Lambrecht, Germany) interfaced to a Macintosh computer running acquisition and analysis software (Pulse and PulseFit). When voltage-gated K^+ currents were measured, the capacitive and leak currents were subtracted using a P/10 procedure. Series resistance compensation (>80%) was used for currents above 2 nA. The holding potential was −80 mV in all experiments.

[1] = toxicity in vivo, LD50 after intracerebroventricular injection; details: mouse, icv or intrathecal, 20 g C57/BL6 mice
Experimental: Groups of six to eight mice per dose were injected with 5 μl peptide solution containing 0.1% (w/v) bovine serum albumin and 0.9% (w/v) NaCl. The LD50 values are set out in Table 5.

mKv1.3 [2] = target: mKv1.3 (Mus musculus, UniProt P16390); assay: patch-clamp whole-cell recording, K+ current block; assay type: cell-based
Chain of mKv1.3 (Mus musculus, UniProt P16390) (P16390 whole entry): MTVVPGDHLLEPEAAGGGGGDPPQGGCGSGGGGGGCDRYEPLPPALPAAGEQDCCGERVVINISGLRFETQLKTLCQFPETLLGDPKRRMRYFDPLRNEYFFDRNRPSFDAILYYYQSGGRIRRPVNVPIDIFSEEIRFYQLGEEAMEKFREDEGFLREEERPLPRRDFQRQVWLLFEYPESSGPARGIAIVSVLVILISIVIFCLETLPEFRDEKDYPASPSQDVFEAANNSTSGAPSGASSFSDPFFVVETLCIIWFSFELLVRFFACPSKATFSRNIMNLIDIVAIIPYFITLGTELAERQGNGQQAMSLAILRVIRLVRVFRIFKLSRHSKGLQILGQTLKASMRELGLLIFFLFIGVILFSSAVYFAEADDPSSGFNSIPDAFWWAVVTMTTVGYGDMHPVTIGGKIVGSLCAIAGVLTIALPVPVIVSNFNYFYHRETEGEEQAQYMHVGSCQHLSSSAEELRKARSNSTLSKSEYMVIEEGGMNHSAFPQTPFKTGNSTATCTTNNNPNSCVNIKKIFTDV
Experimental: as §1

mKv1.1 [3] = target: mKv1.1 (Mus musculus, UniProt P16388); assay: patch-clamp whole-cell recording, K+ current block; assay type: cell-based
Chain of mKv1.1 (Mus musculus, UniProt P16388) (P16388 whole entry): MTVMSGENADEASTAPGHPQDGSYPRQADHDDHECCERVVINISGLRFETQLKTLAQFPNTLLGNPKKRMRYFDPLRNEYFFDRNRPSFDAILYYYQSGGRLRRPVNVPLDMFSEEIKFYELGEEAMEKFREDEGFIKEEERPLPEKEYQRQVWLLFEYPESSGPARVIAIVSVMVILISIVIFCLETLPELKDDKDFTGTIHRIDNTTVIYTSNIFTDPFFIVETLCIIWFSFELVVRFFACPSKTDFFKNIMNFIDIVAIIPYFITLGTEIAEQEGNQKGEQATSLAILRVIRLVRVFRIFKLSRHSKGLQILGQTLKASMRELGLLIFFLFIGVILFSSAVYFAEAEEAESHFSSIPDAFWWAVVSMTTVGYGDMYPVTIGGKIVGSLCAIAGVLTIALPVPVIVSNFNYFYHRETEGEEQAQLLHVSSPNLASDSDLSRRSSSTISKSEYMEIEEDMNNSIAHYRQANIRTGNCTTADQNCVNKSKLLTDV
Experimental: as §1

hKv3.2 [4] = target: T1, hKv3.2; assay: patch-clamp whole-cell recording, K+ current block; assay type: cell-based
Experimental: as §1

[5] = target: hIK1 (human (only by the printed prefix h)) (UniProt O15554)
[6] = target: hKv1.2 (human (only by the printed prefix h)) (UniProt P16389)
[7] = target: mKv1.3 (mouse (only by the printed prefix m)) (UniProt P16390)
[8] = target: hKv3.2 (human (only by the printed prefix h)) (UniProt Q96PR1)
[9] = target: mKv1.1 (mouse (only by the printed prefix m)) (UniProt P16388)
mKv1.1 [10] = target: mKv1.1 (mouse (only by the printed prefix m), UniProt P16388); assay: cell-based or functional assay
mKv1.3 [11] = target: mKv1.3 (mouse (only by the printed prefix m), UniProt P16390); assay: cell-based or functional assay
hKv3.2 [12] = target: T2, hKv3.2; assay: cell-based or functional assay
hKv1.2 = hKv1.2 (human (only by the printed prefix h), UniProt P16389); assay: cell-based or functional assay
hIK1 = hIK1 (human (only by the printed prefix h), UniProt O15554); assay: cell-based or functional assay

Molecule	LD50 [1] [µg/kg]	IC50 (hKv3.2 [4]) [nM]	ID50 (mKv1.1 [10]) [nM]	ID50 (mKv1.3 [11]) [nM]	ID50 (hKv1.2) [nM]	ID50 (hIK1) [nM]	other results
CC[C@H](C)[C@@H]1NC(=O)[C@H](CCCCN)NC(=O)[C@@H](NC(=O)[C@H](CCCCN)NC(=O)[C@@H](NC(=O)[C@H](CC(N)=O)NC(=O)[C@@H](NC(=O)[C@@H](NC(=O)[C@@H](NC(=O)CN)C(C)C)[C@@H](C)CC)[C@@H](C)CC)C(C)C)CSSC[C@@H]2NC(=O)[C@H](CCCCN)NC(=O)CNC(=O)[C@H](Cc3ccccc3)NC(=O)[C@H](CCCNC(=N)N)NC(=O)[C@H](CCSC)NC(=O)CNC(=O)[C@H](C)NC(=O)[C@H](CC(=O)O)NC(=O)[C@H](CCCCN)NC(=O)[C@@H]3CSSC[C@@H](C(=O)N[C@H](C(=O)N4CCC[C@H]4C(=O)N[C@@H](CCCCN)C(N)=O)[C@@H](C)O)NC(=O)[C@H](Cc4c[nH]cn4)NC(=O)[C@H](CSSC[C@H](NC(=O)[C@H](CCC(N)=O)NC(=O)[C@H](CCCNC(=N)N)NC(=O)[C@H](CO)NC1=O)C(=O)N[C@@H](CC(C)C)C(=O)N[C@@H](CCCCN)C(=O)N1CCC[C@H]1C(=O)N3)NC(=O)[C@H](CCCCN)NC(=O)CNC(=O)[C@H](CC(N)=O)NC(=O)[C@H](CCSC)NC2=O (H-GVIINVKCKISRQCLKPCKDAGMRFGKCMNGKCHCTPK-NH2; disulfide 8-28, 14-33, 18-35)	2.25	–	–	–	–	–	IC50 (hIK1 (KCa3.1)): > 1000 nM; IC50 (mKv1.3 [2]): 0.075 ± 0.006 nM; IC50 (mKv1.1 [3]): 0.36 ± 0.04 nM
CC[C@H](C)[C@@H]1NC(=O)[C@H](CCCCN)NC(=O)[C@@H](NC(=O)[C@H](CCCCN)NC(=O)[C@@H](NC(=O)[C@H](CC(N)=O)NC(=O)[C@@H](NC(=O)[C@@H](NC(=O)[C@@H](NC(=O)CN)C(C)C)[C@@H](C)CC)[C@@H](C)CC)C(C)C)CSSC[C@@H]2NC(=O)[C@H](CCCCN)NC(=O)CNC(=O)[C@H](Cc3ccccc3)NC(=O)[C@H](CCCNC(=N)N)NC(=O)[C@H](CCSC)NC(=O)CNC(=O)[C@H](C)NC(=O)[C@H](CC(=O)O)NC(=O)[C@H](CCCCN)NC(=O)[C@@H]3CSSC[C@@H](C(=O)N[C@H](C(=O)N4CCC[C@H]4C(=O)N[C@@H](CCCCN)C(=O)O)[C@@H](C)O)NC(=O)[C@H](Cc4c[nH]cn4)NC(=O)[C@H](CSSC[C@H](NC(=O)[C@H](CCC(N)=O)NC(=O)[C@H](CCCNC(=N)N)NC(=O)[C@H](CO)NC1=O)C(=O)N[C@@H](CC(C)C)C(=O)N[C@@H](CCCCN)C(=O)N1CCC[C@H]1C(=O)N3)NC(=O)[C@H](CCCCN)NC(=O)CNC(=O)[C@H](CC(N)=O)NC(=O)[C@H](CCSC)NC2=O (H-GVIINVKCKISRQCLKPCKDAGMRFGKCMNGKCHCTPK-OH; disulfide 8-28, 14-33, 18-35)	2.5	> 1000	–	–	–	–	activity on IK1 (in words) (hIK1 (KCa3.1)): shares the same activity on IK1; activity on Kv1.3 channel (in words) (mKv1.3 [2]): the most potent Kv1.3 channel blocker characterized so far; potency on the Kv1.3 channel relative to OsK1 (mKv1.3 [2]; compared with OsK1): about five times more potent
CC[C@H](C)[C@@H]1NC(=O)[C@H](CCCCN)NC(=O)[C@@H](NC(=O)[C@H](CCCCN)NC(=O)[C@@H](NC(=O)[C@H](CC(N)=O)NC(=O)[C@@H](NC(=O)[C@H](CCCCN)NC(=O)[C@@H](NC(=O)CN)C(C)C)[C@@H](C)CC)C(C)C)CSSC[C@@H]2NC(=O)[C@H](CCCCN)NC(=O)CNC(=O)[C@H](Cc3ccccc3)NC(=O)[C@H](CCCNC(=N)N)NC(=O)[C@H](CCSC)NC(=O)CNC(=O)[C@H](C)NC(=O)[C@H](CC(=O)O)NC(=O)[C@H](CCCCN)NC(=O)[C@@H]3CSSC[C@@H](C(=O)N[C@H](C(=O)N4CCC[C@H]4C(=O)N[C@@H](CCCCN)C(N)=O)[C@@H](C)O)NC(=O)[C@H](Cc4c[nH]cn4)NC(=O)[C@H](CSSC[C@H](NC(=O)[C@H](CCC(N)=O)NC(=O)[C@H](CCCNC(=N)N)NC(=O)[C@H](CO)NC1=O)C(=O)N[C@@H](CC(C)C)C(=O)N[C@@H](CCCCN)C(=O)N1CCC[C@H]1C(=O)N3)NC(=O)[C@H](CCCCN)NC(=O)CNC(=O)[C@H](CC(N)=O)NC(=O)[C@H](CCSC)NC2=O (H-GVKINVKCKISRQCLKPCKDAGMRFGKCMNGKCHCTPK-NH2; disulfide 8-28, 14-33, 18-35)	2.25	> 1000	–	–	–	–	IC50 (hIK1 (KCa3.1)): > 1000 nM
CC[C@H](C)[C@@H]1NC(=O)[C@H](CCCCN)NC(=O)[C@@H](NC(=O)[C@H](CCCCN)NC(=O)[C@@H](NC(=O)[C@H](CC(N)=O)NC(=O)[C@@H](NC(=O)[C@@H](NC(=O)[C@@H](NC(=O)CNC(C)=O)C(C)C)[C@@H](C)CC)[C@@H](C)CC)C(C)C)CSSC[C@@H]2NC(=O)[C@H](CCCCN)NC(=O)CNC(=O)[C@H](Cc3ccccc3)NC(=O)[C@H](CCCNC(=N)N)NC(=O)[C@H](CCSC)NC(=O)CNC(=O)[C@H](C)NC(=O)[C@H](CCCCN)NC(=O)[C@H](CCCCN)NC(=O)[C@@H]3CSSC[C@@H](C(=O)N[C@H](C(=O)N4CCC[C@H]4C(=O)N[C@@H](CCCCN)C(N)=O)[C@@H](C)O)NC(=O)[C@H](Cc4c[nH]cn4)NC(=O)[C@H](CSSC[C@H](NC(=O)[C@H](CCC(N)=O)NC(=O)[C@H](CCCNC(=N)N)NC(=O)[C@H](CO)NC1=O)C(=O)N[C@@H](CC(C)C)C(=O)N[C@@H](CCC(=O)O)C(=O)N1CCC[C@H]1C(=O)N3)NC(=O)[C@H](CCCCN)NC(=O)CNC(=O)[C@H](CC(N)=O)NC(=O)[C@H](CCSC)NC2=O [Ac-OsK1-NH2]	11	> 1000	–	–	–	–	–
[A^34]-OsK1 (peptide)	–	–	–	–	–	–	ID50 [5]: > 1000 nM; ID50 [6]: 65 nM; ID50 [7]: 0.034 nM; ID50 [8]: > 1000 nM; ID50 [9]: 15.8 nM
VIINVKCKISRQCLEPCKKAGMRFGKCMNGKCHCTPK-NH2 (ends and bridges not checked) [[Δ^1]-OsK1-NH2]	–	–	2.06	0.038	85	620	ID50 (hKv3.2 [12]): > 1000 nM
GVIINVKCKISRQCLKPCKKAGMRFGKCMNGKCHCTPK (ends and bridges not checked; cysteine pairing not given here) [[K^16]-OsK1]	–	–	0.63	0.067	5.23	151	–
GVIINVKCKISRQCLEPCKDAGMRFGKCMNGKCHCTPK (ends and bridges not checked; cysteine pairing not given here) [[D^20]-OsK1]	–	–	2.95	0.037	77.8	716	–
